Results reported in patent US20060034759A1.
Blank lines part the entries; values can stand above or below the molecule they belong to.

Key:
[1] = target: hMN-14×734 (Fab×Fab) bi-specific antibody; assay: SE-HPLC shift with WI2 after incubation of radioiodinated bsAb in human serum at 37° C.
[2] = target: peptide containing a single HSG substituent and a thiol; assay: BIAcore, CM-5 chip derivatised with the mono HSG peptide
[3] = target: DOTA-Phe-Lys(HSG)-D-Tyr-Lys(HSG)-NH2 (IMP 241); assay: in vivo pretargeting, GW-39 tumor-bearing nude mice, 3 h after 111In-IMP-241
[4] = target: carcinoembryonic antigen (CEA) (UniProt P06731); assay: SE-HPLC, 125I-labeled bsMAb with an excess of CEA
[5] = target: Ac-Lys(DTPA)-Tyr-Lys(DTPA)-Lys(Tscg-Cys)-NH2 (IMP 192); assay: calculated from biodistribution in GW-39 tumor-bearing nude mice, 1 h after peptide, assuming one peptide bound to one bsAb
[6] = target: Ac-Lys(DTPA)-Tyr-Lys(DTPA)-Lys(Tscg-Cys)-NH2 (IMP 192); assay: calculated from biodistribution in GW-39 tumor-bearing nude mice, 3 h after peptide, assuming one peptide bound to one bsAb
[7] = target: Ac-Lys(DTPA)-Tyr-Lys(DTPA)-Lys(Tscg-Cys)-NH2 (IMP 192); assay: calculated from biodistribution in GW-39 tumor-bearing nude mice, 30 min after peptide, assuming one peptide bound to one bsAb
[8] = target: Ac-Lys(DTPA)-Tyr-Lys(DTPA)-Lys(Tscg-Cys)-NH2 (IMP 192); assay: calculated from biodistribution in GW-39 tumor-bearing nude mice, 24 h after peptide, assuming one peptide bound to one bsAb
[9] = target: carcinoembryonic antigen (CEA) (UniProt P06731); assay: analytical size exclusion HPLC, radioiodinated bsAb with 10-20× molar excess of CEA
[10] = target: carcinoembryonic antigen (CEA) (UniProt P06731); assay: immunoreactivity test of 99mTc-hMN-14 Fab′, method and antigen not stated

Chain of carcinoembryonic antigen (CEA) (P06731 35-685 limits assumed): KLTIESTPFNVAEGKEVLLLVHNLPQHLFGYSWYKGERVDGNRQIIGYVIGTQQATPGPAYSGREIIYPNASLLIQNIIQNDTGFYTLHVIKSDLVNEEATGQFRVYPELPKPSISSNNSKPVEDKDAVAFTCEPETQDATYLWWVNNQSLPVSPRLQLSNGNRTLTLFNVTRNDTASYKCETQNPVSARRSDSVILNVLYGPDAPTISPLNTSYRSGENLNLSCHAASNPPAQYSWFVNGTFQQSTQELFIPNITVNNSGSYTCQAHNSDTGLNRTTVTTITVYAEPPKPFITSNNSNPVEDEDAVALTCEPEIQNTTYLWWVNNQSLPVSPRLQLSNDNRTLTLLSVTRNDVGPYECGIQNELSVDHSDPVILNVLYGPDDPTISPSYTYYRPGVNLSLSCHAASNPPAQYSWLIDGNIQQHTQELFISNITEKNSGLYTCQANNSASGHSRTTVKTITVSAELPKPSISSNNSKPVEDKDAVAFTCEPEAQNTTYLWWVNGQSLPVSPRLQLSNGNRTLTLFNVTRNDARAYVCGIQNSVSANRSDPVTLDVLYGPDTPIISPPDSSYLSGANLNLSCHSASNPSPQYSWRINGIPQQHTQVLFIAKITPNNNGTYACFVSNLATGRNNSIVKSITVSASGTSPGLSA

Molecule: hMN-14×m679 F(ab′)2 bsMAb (bispecific antibody)
Kd [2]: 1.5 nM
ratio of the % ID/g of the peptide compared to the bsMAb in the tumor [3]: 3.9
percent of radiolabeled product shifting to a higher molecular weight [4]: > 90%

Molecule: hMN-14×734 (Fab×Fab) bi-specific antibody (bispecific antibody)
% saturation on hMN-14 × 734 (available DTPA binding sites on the tumor bound bsAb filled with 99m-Tc-IMP-192) [5]: 25.8%
% saturation on hMN-14 × 734 (available DTPA binding sites on the tumor bound bsAb filled with 99m-Tc-IMP-192) [6]: 25%
% saturation on hMN-14 × 734 (available DTPA binding sites on the tumor bound bsAb filled with 99m-Tc-IMP-192) [7]: 25.4%
% saturation on hMN-14 × 734 (available DTPA binding sites on the tumor bound bsAb filled with 99m-Tc-IMP-192) [8]: 28%
percent of bsAb bound [9]: 90%

Other lines, results leading:

% loss of binding capacity to WI2 after 48 h in serum [1]: 3 to 5%
Molecule: WI2 (rat anti-MN-14 idiotypic antibody)

immunoreactive fraction [10]: 92%
B1: 99mTc-hMN-14 Fab′ (humanized MN-14 Fab′-SH) (Fab, INN chains, looked up, V domains shown)
VH: EVQLVESGGGVVQPGRSLRLSCSASGFDFTTYWMSWVRQAPGKGLEWIGEIHPDSSTINYAPSLKDRFTISRDNAKNTLFLQMDSLRPEDTGVYFCASLYFGFPWFAYWGQGTPVTVSS
VL: DIQLTQSPSSLSASVGDRVTITCKASQDVGTSVAWYQQKPGKAPKLLIYWTSTRHTGVPSRFSGSGSGTDFTFTISSLQPEDIATYYCQQYSLYRSFGQGTKVEIK
modifications: Fab' 99mTc label
